Laboratory results: patent publication US20160250307A1

Target: HLA-A*02 (human)
Assay: UV-ligand exchange, anti-b2m ELISA; grade: exchange yield >=50%

SLTSEIHFL […]
peptide exchange yield: 50 to 75%
